Like-named read-outs stand apart in the source and are kept apart here.

Data set [1] deals with Immunoglobulin E (human myeloma IgE) (Homo sapiens). To be noted: nominal Kd, no asymptote reached; described as negligible binding; fluorescence bead binding assay.
Data set [2] shares this test system. To be noted: fluorescence bead binding assay, 30 min incubation, wash, thermal elution at 95 C; monovalent binding assumed; enriched pool, individual sequences not given.

Regarding “GCCTGTTGTGAGCCTCCTGTCGAANNNNNNNNNNNNNNNNNNNNNNNNNNNNNNNNNNNNNNNNNNNNNTTGAGCGTTTATTCTTGTCTCCC [randomized 45N library]”, in data set [1], the equilibrium dissociation constant (Kd) (commonly the equilibrium constant for the complex coming apart) is 0.62 µM.

In turn, “GCCTGTTGTGAGCCTCCTGTCGAANNNNNNNNNNNNNNNNNNNNNNNNNNNNNNNNNNNNNNNNNNNNNTTGAGCGTTTATTCTTGTCTCCC [round-4 enriched IgE aptamer pool]” came in with a Kd in data set [2] of 0.012 µM. In other words, the double-digit nanomolar range.

For the origin of these results see patent publication US20170067091.
